Source: US20160376366A1 (IMMUNOMEDICS, published 2016)

Legend:
[1] = biological target: T1, CD22 on CD22+ Daudi cells and on B cells within PBMCs (human, UniProt P20273 20-847); assay: ELISA on CD22+ Daudi cells
T1 construct: whole, on cells; The target was presented on human cells; also called human CD22

[2] = biological target: T1, CD22 on CD22+ Daudi cells and on B …; assay: flow cytometry (MFI) on CD22+ Daudi cells
Method: (§1) FIG. 3. […] Binding activity at indicated concentrations is given as the MFI. Measurements were performed in triplicate; standard deviations are shown as bars.
(§2) Cells were pelleted at 200 g at 4° C. for 5 min and washed twice with 500 μl of FACS buffer. For detection of bound antibodies, cells were incubated with saturating amounts of FITC conjugated F(ab) Fragment goat anti-Human IgG, Fc specific (13 μg/ml; Jackson Immuno Research, West Grove, Pa.) for 45 min at 4° C. and washed again with 500 μl of FACS buffer. Stained cells were analyzed on a FACSCAN™ Flow Cytometer (BD Bioscience, San Jose, Calif.), and median fluorescence intensity (MFI) was calculated using […]™ software (BD Bioscience).

[3] = biological target: T1, CD22 on CD22+ Daudi cells and on B …; assay: flow cytometry on CD22+ Daudi cells, MFI, FITC anti-human Fc detection
Method: as §1, §2

[4] = biological target: T1, CD22 on CD22+ Daudi cells and on B …; assay: flow cytometry on CD22+ Daudi cells; reference hLL2 IgG
Method: as §1, §2

[5] = biological target: T1, CD22 on CD22+ Daudi cells and on B …; assay: ELISA on CD22+ Daudi cells (FIG. 2); reference hLL2

Kd [1] | EC50 [2] | EC50 [3] | fold higher affinity (EC50) than hLL2 [4] | fold higher binding affinity than hLL2 [5] | Binder
7.6 nM | 1.03 µg/mL | 6.9 nM | – | – | humanized anti-CD22 LL2 antibody (hLL2, epratuzumab), IgG (antibody, V domains shown, Tested as IgG with human constant regions; also called hLL2 IgG) VH: QVQLQQSGAEVKKPGSSVKVSCKASGYTFTSYWLHWVRQAPGQGLEWIGYIYPRNDYTEYNQNFKDKATITADESTNTAYMELSSLRSEDTAFYFCARRDITTFYWGQGTTVTVSS VL: DIQLTQSPSSLSASVGDRVTMSCKSSQSVLYSANHKNYLAWYQQKPGKAPKLLIYWASTRESGVPSRFSGSGSGTDFTFTISSLQPEDIATYYCHQYLSSWTFGGGTKVQIKR
– | 0.055 µg/mL | 0.4 nM | 19 fold | 10 fold | humanized RFB4 (hRFB4) anti-CD22 antibody, IgG (antibody, V domains shown, RFB4 CDRs were inserted into the FR and constant regions of hLL2; also called hRFB4 IgG) VH: QVQLVQSGAEVKKPGSSVKVSCKASGFTFSIYDMSWVRQAPGQGLEWVAYISSGGGTTYYPDTVKGRFTITADESTNTAYMELSSLRSEDTAFYFCARHSGYGSSYGVLFAYWGQGTLVTVSS VL: DIQLTQSPSSLSASVGDRVTISCRASQDISNYLNWYQQKPGKAPKLLIYYTSILHSGVPSRFSGSGSGTDYTFTISSLQPEDIATYYCQQGNTLPWTFGGGTKVQIKR
